# Assay results taken from the RNAGym collection of RNA variant scans (doi:10.1073/pnas.2313332121).
# Fewer inactive variants are shown than the library holds.
# B1: TPR 5TU (parent)
# chain: GGAUCUUCUCGAUCUAACAAAAAAGACAAAUCUGCCACAAAGCUUGAGAGCAUCUUCGGAUGCAGAGGCGGCAGCCUUCGGUGGCGCGAUAGCGCCAACGUUCUCAACUAUGACACGCAAAACGCGUGCUCCGUUGAAUGGAGUUUAUCAUG
# Variants of: B1
# Assay: polymerase ribozyme fitness, log enrichment relative to wild type (log ratio); higher = more active; in vitro selection for triplet polymerase activity
# Outline: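 After PCR construction and transcription, each subunit's mutant library from a heterodimeric triplet polymerase ribozyme was annealed with a biotinylated primer, the partner subunit and triplets. Incubation was frozen, at −7 °C, and extended constructs were gel-excised, bound to streptavidin beads and amplified by RT-PCR, in one selection round done in triplicate. Fitness is the logarithm of a genotype's enrichment divided by that of the wild type, from inverse-variance-weighted replicate averages of Illumina-sequenced inputs and outputs. The base of the logarithm is 2, and genotypes needed ≥10 input reads and ≥1 read per output.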
row,Variant,polymerase ribozyme fitness (log ratio)
1,G25C A91U C96U C99A C108A A138G,≤ -4.2
2,C10A U15G C57U G83C,≤ -4.2
3,G86U A97U C132A,≤ -4.2
4,A21G C32U G84U A115U U144C,≤ -4.2
5,A52U C57A C63U G94U A150G,≤ -4.2
6,A24U A40C A47U C69U C93U C118U U145A,-4.16
7,G74A G86C G100C C103G C105A U151A,≤ -4.2
8,A17G C57U C69A G100A,≤ -4.2
9,A91G A106G A150U,-0.616
10,C27A C85U,-3.43
11,A21C C27U G59C C69A,-3.75
12,C69G A73G,-2.59
13,U61A A64C G68U G86C,≤ -4.2
14,A19U C69A A98U G140C,≤ -4.2
15,U6A A26G A64C C87U A89C U146C,≤ -4.2
16,A21U C57A,0.469
17,G50U G84C C85G A106G C116U G152A,≤ -4.2
18,C85U A119U A138C U145A,-3.86
19,C35G G48U C57U A110U C116U A138C,≤ -4.2
20,C10G A22U,-3.34
21,A107U G133C,-3.72

row,Variant,polymerase ribozyme fitness (log ratio)
1,C27U C36U C57U G58A C96A A121U G140A,≤ -4.2
2,G74U C87A C116A U151G,≤ -4.2
3,C85A C103A,-4.12
4,A40C C85U G124U,-0.182
5,G68A G83U G88A A107U C114U,≤ -4.2
6,U55A A89U,-0.224
7,U53A C54U C57A G62A C85A G126U,≤ -4.2
8,A29G C93U A107G U148G,≤ -4.2
9,A47G C69G,-1.95
10,U9A G59A C87A,≤ -4.2
11,U6A A24U A60G,0.116
12,A41G,0.583
13,G126A U135C,-1.38
14,C38G U53A C85U U135A,-1.98
15,U13C A40G C43U C87U G128C U139A,≤ -4.2
16,C18U A91G A120G C132U G141C,≤ -4.2
17,U33C C38G C93G A137G G141C,≤ -4.2
18,U56A G58A C93A,-1.41
19,C76U G128U,-3.27
20,U15G A122G,-1.2
21,A3G A23C A26G U45A A52G G59A G80C A106C,≤ -4.2

row,Variant,polymerase ribozyme fitness (log ratio)
1,A19U C93U A97U G141C,-2.49
2,A21U C87A G117C A137C A142U,≤ -4.2
3,A16U A37C A52G G84A G140C,≤ -4.2
4,G58U G84A,-0.866
5,U56A G128A,-3.15
6,G88U C108A G128C C132U A137U,≤ -4.2
7,C8A A17C G62A G68A C85U U111G,≤ -4.2
8,G58C C87U C114U,-2.21
9,U55G G83U C85U A89U C95A,-3.88
10,A17C U33C G42U U44A U56G,≤ -4.2
11,A3C U6G A60G G83C,-3.62
12,C10U A16U G34U A39G G94A G141C,-3.56
13,A64C G83C U139C A150C G152U,≤ -4.2
14,A17U C76A A122G,-0.419
15,C38G U53A G70A G92A A107C,≤ -4.2
16,A19C A20G U55A G58U C85A G140C,≤ -4.2
17,U53G G94A,-4.1
18,C57U G94U U127C C132U,-3.37
19,A21G A29C G88A G92C C96G U102G A107U,≤ -4.2
20,G46C C54A C96G C103G G141U,≤ -4.2
21,C96A G126A,-1.95

row,Variant,polymerase ribozyme fitness (log ratio)
1,A47C C51U A52C C75A C96U C103A A110C,≤ -4.2
2,A3U G74A C75G A91U A120U C132U,≤ -4.2
3,C10A A24C C51U G141U,≤ -4.2
4,U82A C85G,-3.05
5,G92A C103A,-3.9
6,A24U A91G A97G A115U,-4.19
7,G62C C85G,-3.23
8,U55A G84U G124A,-1.26
9,C54G C96U U111G G133U A137G,≤ -4.2
10,A40C G42A A52U G81C G84U A97C C118U,≤ -4.2
11,A3U A30U G34U G58A C87G C95U C131G,≤ -4.2
12,C5A G59U C69U G94U A98G U102G U135C,≤ -4.2
13,A49C G50C G71A U90C C93G G117U C123G,≤ -4.2
14,G46A A49C G59C U61A G86U,≤ -4.2
15,C43U A119G,≤ -4.2
16,C87A U135C,≤ -4.2
17,U56C C57A,0.0626
18,C10U A17G A23C A24C A26G U31G A39U U44A C54G C57G C79A C96U G124A,≤ -4.2
19,G88A C105U,-3.72
20,U6A A12G A30C A66U C95A A106G A120G G126C A150U,≤ -4.2
